In patent US20150344570A1 (published 2015):

T1: FcγRIIb (human, UniProt P31994 43-217)
T1 construct: extracellular domain; also called FcgRIIb; 2b
T1 sequence (looked up): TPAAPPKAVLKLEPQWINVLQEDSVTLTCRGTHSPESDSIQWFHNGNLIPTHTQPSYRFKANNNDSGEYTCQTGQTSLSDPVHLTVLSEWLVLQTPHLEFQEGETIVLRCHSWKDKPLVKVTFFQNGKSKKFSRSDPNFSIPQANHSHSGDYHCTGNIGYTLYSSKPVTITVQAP

T2: FcγRIIa R extracellular domain with C-terminal His tag (human, UniProt P12318 34-217)
T2 construct: extracellular domain; also called FcgRIIa R; 2aR; not shown: His tag at the C terminus
T2 sequence (looked up): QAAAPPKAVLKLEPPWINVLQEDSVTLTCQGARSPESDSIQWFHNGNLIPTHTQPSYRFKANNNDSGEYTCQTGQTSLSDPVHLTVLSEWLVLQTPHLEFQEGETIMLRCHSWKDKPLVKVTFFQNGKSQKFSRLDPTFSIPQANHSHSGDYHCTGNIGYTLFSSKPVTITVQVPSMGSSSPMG


Columns and labels:
FcγRIIb = target: T1, FcγRIIb; experiment: SPR (Biacore), captured antibody, FcγR as analyte; relative binding, control GpH7-A5/GpH7-B3/GpL16-k0 = 100
Description: The heterodimerized antibodies He Abs in which one of the H chains was introduced with an alteration were assayed for their binding activities to each activating FcγR and inhibitory FcγR according to the method described in Example 4. […] The activating FcγRs in FIGS. 26, 27, 28, and 29 are FcγRIa, FcγRIIa (R), FcγRIIa (H), and FcγRIIIa, respectively.
Analysis of interaction between objective antibody and the FcγR was carried out using Biacore T100 (GE Healthcare). HBS-EP+ (GE Healthcare) was used as the running buffer, and the measurement temperature was set to 25° C. Chips produced by immobilizing the antigen peptide by the amine coupling method to a Series S Sencor Chip CM5 (GE Healthcare), or alternatively, chips produced by allowing preliminarily biotinylated antigen peptides to interact with and immobilize onto a Series S Sensor Chip SA (certified) (GE Healthcare) were used. Antibodies of interest were captured onto an antigen peptide-immobilized chip, and allowed to interact to each FcγR diluted with running buffer. To regenerate and repeatedly use the chip, the antibodies captured on the chip were washed off by reacting 10 mM glycine-HCl, pH 1.5.

[1] = target: T2, FcγRIIa R extracellular domain with …; experiment: SPR (Biacore), relative FcγRIIa R binding, GpH7-A5/GpH7-B3/GpL16-k0 = 100

Binder | He/Con_2b (FcγRIIb) | He/Con_2aR [1]
GpH7-A5/GpH7-B3 variant D265_15Y/GpL16-k0 (antibody, human IgG1, kappa, heterodimerized anti-glypican-3 IgG1; alteration in one H chain only; also called He Ab) heavy 1: not shown heavy 2: not shown light: DIVMTQSPLSLPVTPGEPASISCQASESLVHSNRNTYLHWYLQKPGQSPQLLIYKVSNRFSGVPDRFSGSGSGTDFTLKISRVEAEDVGVYYCSQNTHVPPTFGQGTKVEIERTVAAPSVFIFPPSDEQLKSGTASVVCLLNNFYPREAKVQWKVDNALQSGNSQESVTEQDSKDSTYSLSSTLTLSKADYEKHKVYACEVTHQGLSSPVTKSFNRGEC | 0.6 control = 100 | 
GpH7-A5/GpH7-B3 variant T335_07I/GpL16-k0 (antibody, human IgG1, kappa, heterodimerized: alteration in one H chain only; also called He Ab T335_07I) heavy 1: not shown heavy 2: not shown light: DIVMTQSPLSLPVTPGEPASISCQASESLVHSNRNTYLHWYLQKPGQSPQLLIYKVSNRFSGVPDRFSGSGSGTDFTLKISRVEAEDVGVYYCSQNTHVPPTFGQGTKVEIERTVAAPSVFIFPPSDEQLKSGTASVVCLLNNFYPREAKVQWKVDNALQSGNSQESVTEQDSKDSTYSLSSTLTLSKADYEKHKVYACEVTHQGLSSPVTKSFNRGEC |  | 109 % of control
GpH7-A5/GpH7-B3 variant S337_20W/GpL16-k0 (antibody, human IgG1, kappa, heterodimerized: alteration in one H chain only; also called He Ab S337_20W) heavy 1: not shown heavy 2: not shown light: DIVMTQSPLSLPVTPGEPASISCQASESLVHSNRNTYLHWYLQKPGQSPQLLIYKVSNRFSGVPDRFSGSGSGTDFTLKISRVEAEDVGVYYCSQNTHVPPTFGQGTKVEIERTVAAPSVFIFPPSDEQLKSGTASVVCLLNNFYPREAKVQWKVDNALQSGNSQESVTEQDSKDSTYSLSSTLTLSKADYEKHKVYACEVTHQGLSSPVTKSFNRGEC |  | 110 % of control
GpH7-A5/GpH7-B3 variant D265_20W/GpL16-k0 (antibody, human IgG1, kappa, heterodimerized anti-glypican-3 IgG1; alteration in one H chain only; also called He Ab) heavy 1: not shown heavy 2: not shown light: DIVMTQSPLSLPVTPGEPASISCQASESLVHSNRNTYLHWYLQKPGQSPQLLIYKVSNRFSGVPDRFSGSGSGTDFTLKISRVEAEDVGVYYCSQNTHVPPTFGQGTKVEIERTVAAPSVFIFPPSDEQLKSGTASVVCLLNNFYPREAKVQWKVDNALQSGNSQESVTEQDSKDSTYSLSSTLTLSKADYEKHKVYACEVTHQGLSSPVTKSFNRGEC | 1.1 control = 100 | 
GpH7-A5/GpH7-B3 variant S324_06M/GpL16-k0 (antibody, human IgG1, kappa, heterodimerized: alteration in one H chain only; also called He Ab S324_06M) heavy 1: not shown heavy 2: not shown light: DIVMTQSPLSLPVTPGEPASISCQASESLVHSNRNTYLHWYLQKPGQSPQLLIYKVSNRFSGVPDRFSGSGSGTDFTLKISRVEAEDVGVYYCSQNTHVPPTFGQGTKVEIERTVAAPSVFIFPPSDEQLKSGTASVVCLLNNFYPREAKVQWKVDNALQSGNSQESVTEQDSKDSTYSLSSTLTLSKADYEKHKVYACEVTHQGLSSPVTKSFNRGEC |  | 123 % of control
GpH7-A5/GpH7-B3 variant T335_13S/GpL16-k0 (antibody, human IgG1, kappa, heterodimerized: alteration in one H chain only; also called He Ab T335_13S) heavy 1: not shown heavy 2: not shown light: DIVMTQSPLSLPVTPGEPASISCQASESLVHSNRNTYLHWYLQKPGQSPQLLIYKVSNRFSGVPDRFSGSGSGTDFTLKISRVEAEDVGVYYCSQNTHVPPTFGQGTKVEIERTVAAPSVFIFPPSDEQLKSGTASVVCLLNNFYPREAKVQWKVDNALQSGNSQESVTEQDSKDSTYSLSSTLTLSKADYEKHKVYACEVTHQGLSSPVTKSFNRGEC |  | 110 % of control
GpH7-A5/GpH7-B3 variant S337_06M/GpL16-k0 (antibody, human IgG1, kappa, heterodimerized: alteration in one H chain only; also called He Ab S337_06M) heavy 1: not shown heavy 2: not shown light: DIVMTQSPLSLPVTPGEPASISCQASESLVHSNRNTYLHWYLQKPGQSPQLLIYKVSNRFSGVPDRFSGSGSGTDFTLKISRVEAEDVGVYYCSQNTHVPPTFGQGTKVEIERTVAAPSVFIFPPSDEQLKSGTASVVCLLNNFYPREAKVQWKVDNALQSGNSQESVTEQDSKDSTYSLSSTLTLSKADYEKHKVYACEVTHQGLSSPVTKSFNRGEC |  | 105 % of control
GpH7-A5/GpH7-B3 variant S337_07I/GpL16-k0 (antibody, human IgG1, kappa, heterodimerized: alteration in one H chain only; also called He Ab S337_07I) heavy 1: not shown heavy 2: not shown light: DIVMTQSPLSLPVTPGEPASISCQASESLVHSNRNTYLHWYLQKPGQSPQLLIYKVSNRFSGVPDRFSGSGSGTDFTLKISRVEAEDVGVYYCSQNTHVPPTFGQGTKVEIERTVAAPSVFIFPPSDEQLKSGTASVVCLLNNFYPREAKVQWKVDNALQSGNSQESVTEQDSKDSTYSLSSTLTLSKADYEKHKVYACEVTHQGLSSPVTKSFNRGEC |  | 109 % of control
GpH7-A5/GpH7-B3 variant S337_19Q/GpL16-k0 (antibody, human IgG1, kappa, heterodimerized: alteration in one H chain only; also called He Ab S337_19Q) heavy 1: not shown heavy 2: not shown light: DIVMTQSPLSLPVTPGEPASISCQASESLVHSNRNTYLHWYLQKPGQSPQLLIYKVSNRFSGVPDRFSGSGSGTDFTLKISRVEAEDVGVYYCSQNTHVPPTFGQGTKVEIERTVAAPSVFIFPPSDEQLKSGTASVVCLLNNFYPREAKVQWKVDNALQSGNSQESVTEQDSKDSTYSLSSTLTLSKADYEKHKVYACEVTHQGLSSPVTKSFNRGEC |  | 106 % of control
